1 molecule from patent publication US20250271431A1 can be followed below.

What all share (experiment): RepliTope peptide microarray, Cy5 fluorescence
Assay [1] addresses epitope sequence SEQ ID No 17 (…) (SARS-CoV-2).
For assay [2], the target named is epitope sequence SEQ ID No 15 (…) (SARS-CoV-2).
The target in assay [3] is epitope sequence SEQ ID No 37 (…) (SARS-CoV-2).
Assay [4] concerns the target epitope sequence SEQ ID No 18 (…) (SARS-CoV-2).
Assay [5] deals with epitope sequence SEQ ID No 19 (…) (SARS-CoV-2).
Assay [6] concerns the target epitope sequence SEQ ID No 35 (…) (SARS-CoV-2).

B1: hcAb B10 (clone B10), camelid full length IgG2 heavy chain only antibody (antibody)
heavy: DVQLQESGGGLVQPGGSLRLSCAASGDINTIGTMNWFRQAPGKGREFVALITSGGTTNYADSVKGRFTVSRDNAKNTVYLQMNSLKPEDTAVYHCYGADHYSDYWGQGTQVTVSSEPKTPKPQPQPQPQPNPTTESKCPKCPAPELLGGPSVFIFPPKPKDVLSISGRPEVTCVVVDVGQEDPEVSFNWYIDGAEVRTANTRPKEEQFNSTYRVVSVLPIQHQDWLTGKEFKCKVNNKALPAPIEKTISKAKGQTREPQVYALAPHREELAKDTVSVTCLVKGFYPPDINVEWQRNRQPEPEGTYATTPPQLDNDGTYFLYSKLSVGKNTWQRGETFTCVVMHETLHNHYTQKSISQS
For B1, the average signal intensity (mean pixel value) in assay [1] was 45000; in assay [2], 23000; in assay [3] it was 13900; in assay [4] it was 32800; in assay [5] it was 2400; in assay [6], 10500.
